Test results as given in patent US6323001A, “Increasing the trehalose content of organisms by transforming them with combinations of the structural genes for trehalose synthase” (BTG International Ltd., priority 1994, dated 2001).

How the values were obtained:
Assay type in all cases: biochemical, baker's yeast
[1] = biological target: T1, Tre6P synthase activity of intact trehalose synthase (Saccharomyces cerevisiae, UniProt Q00764); assay: Tre6P synthase assay of intact trehalose synthase; settings: 11 μg trypsin, 25° C., after first 30 min (26% before)
T1 construct: Intact trehalose synthase was purified from commercial baker's yeast; made in house; host or cells: commercial baker's yeast (native enzyme purified, not recombinant)

[2] = biological target: T1, Tre6P synthase activity of intact trehalose synthase; assay: Tre6P synthase assay of intact trehalose synthase; settings: 0.5 μg trypsin, 30° C., first 10 min
Experimental: (§1) With microbial materials, Tre6Pase and Tre6P synthase standard assays and other kinetic measurements were made as described by Londesborough & Vuorio [(1991) loc. cit.] except that the standard Tre6P synthase assay mixture contained 5 mM F6P unless stated otherwise.
Removal of the N-terminal 325 or so amino acids from the 123 kDa long chain of intact trehalose synthase by treatment with trypsin in vitro produces an enzyme with catalytic properties like those of the truncated enzyme purified by Londesborough & Vuorio [(1991) loc. cit.]. In one experiment intact trehalose synthase (0.28 Tre6P synthase units, ≈9.4 μg) was incubated with or without 0.5 μg of trypsin at 30° C. in 250 μl of 13 mM HEPES pH 7.0 containing 1 mM MgCl2, 0.5 mM EDTA, 0.5 mM dithiothreitol, 0.2 M NaCl and 0.5 mM benzamidine. Its Tre6P synthase activity was determined at intervals using standard assay mixtures (containing 5 mM F6P) containing no or 4 mM K phosphate pH 6.8, and samples were prepared for SDS-PAGE analysis immediately before and 48 min after addition of the trypsin.
Truncated trehalose synthase was prepared as described by Londesborough & Vuorio [(1991) loc. cit.] and contained the 57 kDa short chain and 86 and 93 kDa fragments of the long chain. Intact trehalose synthase was prepared as in Example 1. Kinetic assays were done at 30° C. as described in General Methods and Materials.

[3] = biological target: T2, Tre6Pase activity of intact trehalose synthase (Saccharomyces cerevisiae, UniProt P31688); assay: Tre6Pase assay of intact trehalose synthase
T2 construct: Intact trehalose synthase was purified from commercial baker's yeast; made in house; host or cells: commercial baker's yeast (native enzyme purified, not recombinant)
T2 sequence (P31688 1-896): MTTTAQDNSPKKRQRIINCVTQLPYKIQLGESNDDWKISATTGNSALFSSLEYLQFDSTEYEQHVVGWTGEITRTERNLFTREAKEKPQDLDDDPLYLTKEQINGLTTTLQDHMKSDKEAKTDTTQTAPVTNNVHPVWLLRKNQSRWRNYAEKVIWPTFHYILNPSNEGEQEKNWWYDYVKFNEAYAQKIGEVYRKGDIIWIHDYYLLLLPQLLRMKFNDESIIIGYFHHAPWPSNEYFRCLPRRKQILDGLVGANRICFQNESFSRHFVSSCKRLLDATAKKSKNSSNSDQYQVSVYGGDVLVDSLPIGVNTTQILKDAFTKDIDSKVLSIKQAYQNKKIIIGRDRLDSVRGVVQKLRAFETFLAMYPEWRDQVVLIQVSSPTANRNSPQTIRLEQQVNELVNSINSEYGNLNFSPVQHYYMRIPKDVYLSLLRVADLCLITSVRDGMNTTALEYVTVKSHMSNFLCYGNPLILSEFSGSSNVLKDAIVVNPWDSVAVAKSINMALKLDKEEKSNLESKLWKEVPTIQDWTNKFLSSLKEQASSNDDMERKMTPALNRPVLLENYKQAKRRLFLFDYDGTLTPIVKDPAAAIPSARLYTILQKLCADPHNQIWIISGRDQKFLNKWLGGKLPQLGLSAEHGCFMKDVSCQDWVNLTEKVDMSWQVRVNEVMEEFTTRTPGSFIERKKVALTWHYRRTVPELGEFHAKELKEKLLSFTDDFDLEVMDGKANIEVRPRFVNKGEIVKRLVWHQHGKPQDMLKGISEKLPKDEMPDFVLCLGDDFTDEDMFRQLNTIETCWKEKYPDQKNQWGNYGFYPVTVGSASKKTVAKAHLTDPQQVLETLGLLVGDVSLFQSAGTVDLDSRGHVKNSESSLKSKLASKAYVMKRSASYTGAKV
T2 sequence (Q00764 1-495 partner): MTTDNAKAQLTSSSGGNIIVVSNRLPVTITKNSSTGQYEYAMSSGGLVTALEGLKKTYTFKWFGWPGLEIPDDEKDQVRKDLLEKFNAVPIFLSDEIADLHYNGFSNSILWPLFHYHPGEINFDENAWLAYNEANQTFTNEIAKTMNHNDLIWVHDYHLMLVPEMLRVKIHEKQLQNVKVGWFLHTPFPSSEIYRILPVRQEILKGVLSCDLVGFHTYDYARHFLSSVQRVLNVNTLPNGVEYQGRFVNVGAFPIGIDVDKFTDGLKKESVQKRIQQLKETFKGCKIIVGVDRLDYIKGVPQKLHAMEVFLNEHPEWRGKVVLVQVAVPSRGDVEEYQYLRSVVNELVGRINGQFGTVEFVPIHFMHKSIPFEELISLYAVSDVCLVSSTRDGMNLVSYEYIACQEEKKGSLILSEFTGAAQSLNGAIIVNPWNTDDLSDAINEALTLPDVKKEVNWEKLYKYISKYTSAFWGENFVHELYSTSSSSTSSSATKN
T2 sequence (P38427 1-1098 partner): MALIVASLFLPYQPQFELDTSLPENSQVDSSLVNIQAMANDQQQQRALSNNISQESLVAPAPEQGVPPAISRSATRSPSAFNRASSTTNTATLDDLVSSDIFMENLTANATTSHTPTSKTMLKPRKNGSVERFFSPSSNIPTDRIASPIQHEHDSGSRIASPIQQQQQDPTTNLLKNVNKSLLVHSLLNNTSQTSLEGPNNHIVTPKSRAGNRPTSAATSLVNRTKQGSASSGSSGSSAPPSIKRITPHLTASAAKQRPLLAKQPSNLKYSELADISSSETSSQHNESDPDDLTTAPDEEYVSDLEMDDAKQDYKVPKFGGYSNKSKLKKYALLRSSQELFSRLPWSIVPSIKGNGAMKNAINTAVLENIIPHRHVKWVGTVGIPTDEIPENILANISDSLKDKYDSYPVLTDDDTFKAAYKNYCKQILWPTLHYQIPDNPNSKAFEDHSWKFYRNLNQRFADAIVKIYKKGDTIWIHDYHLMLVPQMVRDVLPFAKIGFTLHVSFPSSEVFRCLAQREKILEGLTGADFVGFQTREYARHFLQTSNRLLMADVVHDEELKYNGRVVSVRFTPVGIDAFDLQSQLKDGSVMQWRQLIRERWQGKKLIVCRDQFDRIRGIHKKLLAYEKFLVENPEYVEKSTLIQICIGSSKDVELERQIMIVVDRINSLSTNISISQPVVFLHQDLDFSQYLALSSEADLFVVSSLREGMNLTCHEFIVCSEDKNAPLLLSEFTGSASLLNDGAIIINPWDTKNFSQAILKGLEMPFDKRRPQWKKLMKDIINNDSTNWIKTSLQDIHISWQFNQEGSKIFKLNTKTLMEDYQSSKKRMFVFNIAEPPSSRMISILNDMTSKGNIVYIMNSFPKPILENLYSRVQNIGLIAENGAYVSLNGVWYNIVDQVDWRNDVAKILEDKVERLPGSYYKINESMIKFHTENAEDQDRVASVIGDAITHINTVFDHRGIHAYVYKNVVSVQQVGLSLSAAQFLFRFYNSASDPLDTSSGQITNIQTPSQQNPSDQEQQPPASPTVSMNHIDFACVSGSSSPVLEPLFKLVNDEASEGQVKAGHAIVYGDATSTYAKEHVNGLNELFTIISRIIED
Experimental: as §1
In one experiment intact trehalose synthase (0.28 Tre6P synthase units, ≈9.4 μg) was incubated with or without 0.5 μg of trypsin at 30° C. in 250 μl of 13 mM HEPES pH 7.0 containing 1 mM MgCl2, 0.5 mM EDTA, 0.5 mM dithiothreitol, 0.2 M NaCl and 0.5 mM benzamidine. Its Tre6P synthase activity was determined at intervals using standard assay mixtures (containing 5 mM F6P) containing no or 4 mM K phosphate pH 6.8, and samples were prepared for SDS-PAGE analysis immediately before and 48 min after addition of the trypsin.
Intact trehalose synthase was prepared as in Example 1. Kinetic assays were done at 30° C. as described in General Methods and Materials.

[4] = biological target: T3, Tre6Pase activity of the 99 kDa polypeptide (Saccharomyces cerevisiae, UniProt P31688); assay: Tre6Pase activity of isolated 99 kDa polypeptide
T3 construct: the 99 kDa polypeptide isolated from intact trehalose synthase is a specific trehalose-6-phosphatase; made in house; host or cells: commercial baker's yeast (native; isolated from intact trehalose synthase on phosphocellulose)
Experimental: Intact trehalose synthase has also been fractionated on phosphocellulose in the absence of Triton, and with elution by a simple linear gradient from 0 to 0.6 M NaCl. […] This activity differed from the Tre6Pase activity of intact trehalose synthase in that the ratio of activities at 25 mM phosphate and 50 mM Hepes was between 1.5 and 3 in different experiments (cf, this ratio is 5 to 6 for intact trehalose synthase). Furthermore, during storage of the isolated 99 kDa polypeptide at 0° C., the Tre6Pase activity at 25 mM phosphate decreased and that at 50 mM Hepes increased, until the ratio was about 0.7 after 7 weeks.

Row | Compound | Tre6P synthase activity in absence of F6P and presence of 10 mM phosphate, % of standard activity [1] [%] | increase in Tre6P synthase activity measured at 4 mM phosphate [2] [fold] | loss of Tre6Pase activity ([3]; limited treatment with trypsin, 30° C.) | rate of hydrolysis relative to 0.5 mM trehalose-6-phosphate ([3]; 1 mM G6P, phosphate or Hepes buffer) | hydrolysis by isolated 99 kDa polypeptide [4]
1 | trypsin | 73 | 4 | about 50% |  | 
2 | O=P(O)(O)OC[C@H]1OC(O)[C@H](O)[C@@H](O)[C@@H]1O (some centres unmarked) [Transformant G6P, Glucose 6-phosphate] |  |  |  | less than 1% | not hydrolyzed
